The values below are quoted from earlier work in article PMC12564133.

As a reminder, the Kd is a measure of binding affinity in units of concentration.

The target of this data set is BKCa channel (UniProt Q12791).
UniProt Q12791, sequence (Q12791 whole entry): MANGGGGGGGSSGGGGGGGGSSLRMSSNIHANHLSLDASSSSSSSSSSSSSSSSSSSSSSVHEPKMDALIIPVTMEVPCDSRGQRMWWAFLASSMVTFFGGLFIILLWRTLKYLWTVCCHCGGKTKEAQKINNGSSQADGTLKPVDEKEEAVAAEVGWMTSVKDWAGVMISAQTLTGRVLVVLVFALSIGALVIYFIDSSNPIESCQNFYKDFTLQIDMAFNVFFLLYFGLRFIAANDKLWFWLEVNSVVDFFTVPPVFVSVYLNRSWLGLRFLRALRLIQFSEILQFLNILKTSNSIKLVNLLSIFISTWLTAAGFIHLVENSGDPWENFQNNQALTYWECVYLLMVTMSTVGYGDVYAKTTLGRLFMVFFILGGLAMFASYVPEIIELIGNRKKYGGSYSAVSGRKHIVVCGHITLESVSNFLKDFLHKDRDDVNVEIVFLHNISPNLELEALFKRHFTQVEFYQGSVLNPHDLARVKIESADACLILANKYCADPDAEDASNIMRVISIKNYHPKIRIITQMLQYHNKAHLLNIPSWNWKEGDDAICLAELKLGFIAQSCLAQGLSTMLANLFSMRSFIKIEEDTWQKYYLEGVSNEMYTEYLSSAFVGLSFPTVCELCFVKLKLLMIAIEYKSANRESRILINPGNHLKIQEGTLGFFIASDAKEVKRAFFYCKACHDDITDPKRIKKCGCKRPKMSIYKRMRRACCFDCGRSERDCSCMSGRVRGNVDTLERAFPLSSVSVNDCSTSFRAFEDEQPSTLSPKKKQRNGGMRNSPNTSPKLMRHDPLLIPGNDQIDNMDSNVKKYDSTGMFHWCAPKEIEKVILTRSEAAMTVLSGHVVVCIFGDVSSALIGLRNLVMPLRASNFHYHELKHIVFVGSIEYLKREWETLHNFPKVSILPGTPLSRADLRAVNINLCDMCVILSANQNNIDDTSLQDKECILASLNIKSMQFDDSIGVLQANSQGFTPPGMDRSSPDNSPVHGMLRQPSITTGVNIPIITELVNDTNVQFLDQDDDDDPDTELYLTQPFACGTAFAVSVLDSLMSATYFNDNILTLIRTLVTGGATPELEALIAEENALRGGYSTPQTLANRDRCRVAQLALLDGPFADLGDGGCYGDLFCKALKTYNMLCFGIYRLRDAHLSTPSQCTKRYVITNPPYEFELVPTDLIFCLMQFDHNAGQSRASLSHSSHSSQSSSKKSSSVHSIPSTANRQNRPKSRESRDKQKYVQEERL

For “Iberiotoxin (IbTX) (from UniProt P24663)”, the dissociation constant Kd is 1.16 nM.
